T1: mouse tissue factor pathway inhibitor (TFPI) (mouse, UniProt O54819 29-289, limits assumed)
T1 construct: bought; also called mTFPI; murine TFPI
T1 sequence (looked up): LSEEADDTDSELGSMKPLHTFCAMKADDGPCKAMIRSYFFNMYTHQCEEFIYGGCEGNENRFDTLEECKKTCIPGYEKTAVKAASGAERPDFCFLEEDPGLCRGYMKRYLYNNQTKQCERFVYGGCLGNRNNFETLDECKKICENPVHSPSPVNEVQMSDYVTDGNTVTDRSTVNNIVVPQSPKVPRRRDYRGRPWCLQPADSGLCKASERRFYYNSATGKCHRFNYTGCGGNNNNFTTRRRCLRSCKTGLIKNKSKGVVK

T2: human tissue factor pathway inhibitor (TFPI) (human, UniProt P10646 29-304, limits assumed)
T2 construct: bought; also called hTFPI; human TFPI
T2 sequence (looked up): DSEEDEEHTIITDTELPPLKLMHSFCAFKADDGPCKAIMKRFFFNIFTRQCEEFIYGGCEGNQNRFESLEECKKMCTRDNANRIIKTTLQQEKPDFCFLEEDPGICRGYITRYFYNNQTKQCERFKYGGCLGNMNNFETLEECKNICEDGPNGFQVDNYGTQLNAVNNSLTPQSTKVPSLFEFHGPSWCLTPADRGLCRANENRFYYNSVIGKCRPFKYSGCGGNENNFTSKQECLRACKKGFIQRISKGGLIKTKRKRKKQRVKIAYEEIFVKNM

B1: 2A8 HC Q1E+R30S+S35D+S55G+S56G+K99L/LC Y48F+D91L+V96W (Fab, V domains shown)
VH: EVQLVESGGGLVQPGGSLRLSCAASGFTFSSYGMDWVRQAPGKGLEWVSSIRGSGGSTYYADSVKGRFTISRDNSKNTLYLQMNSLRAEDTAVYYCARLYRYWFDYWGQGTLVTVSS
VL: DIELTQPPSVSVAPGQTARISCSGDNLRNYYAHWYQQKPGQAPVVVIFYDNNRPSGIPERFSGSNSGNTATLTISGTQAEDEADYYCQSWLDGVPWFGGGTKLTVLG
B2: 2A8 HC S31V+G33P+I51D+S54F+K99V/LC Y48F+N51V+D91W (Fab, V domains shown)
VH: B1 VH with E1Q, S30R, S31V, G33P, D35S, I51D, S54F, G55S, G56S, L99V
VL: B1 VL with N51V, L91W, W96V
B3: 2A8 HC S31V+I51E+S55R+K99V/LC Y48F+D91L+V96W (Fab, V domains shown)
VH: B1 VH with E1Q, S30R, S31V, D35S, I51E, G55R, G56S, L99V
VL: B1 VL
B4: 2A8 HC S31V+I51D+S54F+K99V/LC Y48F+N51V (Fab, V domains shown)
VH: B1 VH with E1Q, S30R, S31V, D35S, I51D, S54F, G55S, G56S, L99V
VL: B1 VL with N51V, L91D, W96V
B5: 2A8 HC S35D+I51D+K99L/LC Y48F+D91W (Fab, V domains shown)
VH: B1 VH with E1Q, S30R, I51D, G55S, G56S
VL: B1 VL with L91W, W96V
B6: 2A8 HC S31V+S35L+I51D+S54F+K99V/LC N51V+D91K (Fab, V domains shown)
VH: B1 VH with E1Q, S30R, S31V, D35L, I51D, S54F, G55S, G56S, L99V
VL: B1 VL with F48Y, N51V, L91K, W96V
B7: 2A8 HC S31V+I51D+R52S+S55R+K99V/LC Y48F+D91L+V96W (Fab, V domains shown)
VH: B1 VH with E1Q, S30R, S31V, D35S, I51D, R52S, G55R, G56S, L99V
VL: B1 VL
B8: 2A8 HC S31V+K99V/LC N51V+D91W (Fab, V domains shown)
VH: B1 VH with E1Q, S30R, S31V, D35S, G55S, G56S, L99V
VL: B1 VL with F48Y, N51V, L91W, W96V
B9: 2A8 HC S31V+G33A+I51D+S55R+K99V/LC Y48F+D91L+V96W (Fab, V domains shown)
VH: B1 VH with E1Q, S30R, S31V, G33A, D35S, I51D, G55R, G56S, L99V
VL: B1 VL
B10: 2A8 HC Q1E+S35D+S55R+K99L/LC Y48F+N51V+D91W (Fab, V domains shown)
VH: B1 VH with S30R, G55R, G56S
VL: B1 VL with N51V, L91W, W96V
B11: 2A8 HC R30S+S31V+I51D+S55R+K99V/LC Y48F+D91L+V96W (Fab, V domains shown)
VH: B1 VH with E1Q, S31V, D35S, I51D, G55R, G56S, L99V
VL: B1 VL
B12: 2A8 HC R30S+S35D+S55R+K99L/LC Y48F+N51V+D91W (Fab, V domains shown)
VH: B1 VH with E1Q, G55R, G56S
VL: B1 VL with N51V, L91W, W96V
B13: 2A8 HC S31V+I51D+S55R/LC Y48F+N51V+D91L (Fab, V domains shown)
VH: B1 VH with E1Q, S30R, S31V, D35S, I51D, G55R, G56S, L99K
VL: B1 VL with N51V, W96V
B14: 2A8 HC S31V+S35L+I51E+S54F+K99V/LC N51V+D91K (Fab, V domains shown)
VH: B1 VH with E1Q, S30R, S31V, D35L, I51E, S54F, G55S, G56S, L99V
VL: B1 VL with F48Y, N51V, L91K, W96V
B15: 2A8 HC S31V+S35D/LC Y48F+N51V (Fab, V domains shown)
VH: B1 VH with E1Q, S30R, S31V, G55S, G56S, L99K
VL: B1 VL with N51V, L91D, W96V
B16: 2A8 HC S31V+I51D+S55R+S56G+K99V/LC Y48F+D91L+V96W (Fab, V domains shown)
VH: B1 VH with E1Q, S30R, S31V, D35S, I51D, G55R, L99V
VL: B1 VL
B17: 2A8 HC S31V+G33P+S35D/LC Y48F+D91L+V96W (Fab, V domains shown)
VH: B1 VH with E1Q, S30R, S31V, G33P, G55S, G56S, L99K
VL: B1 VL
B18: 2A8 HC S31V+I51D+S55R+K99L/LC Y48F+N52G+D91L+V96W (Fab, V domains shown)
VH: B1 VH with E1Q, S30R, S31V, D35S, I51D, G55R, G56S
VL: B1 VL with N52G
B19: 2A8 HC S31V+S50A+I51D+S55R+K99V/LC Y48F+D91L+V96W (Fab, V domains shown)
VH: B1 VH with E1Q, S30R, S31V, D35S, S50A, I51D, G55R, G56S, L99V
VL: B1 VL
B20: 2A8 HC S31V+S35D+I51D+K99V/LC Y48F+D91K (Fab, V domains shown)
VH: B1 VH with E1Q, S30R, S31V, I51D, G55S, G56S, L99V
VL: B1 VL with L91K, W96V
B21: 2A8 HC S31V+S54F+K99L/LC N51V (Fab, V domains shown)
VH: B1 VH with E1Q, S30R, S31V, D35S, S54F, G55S, G56S
VL: B1 VL with F48Y, N51V, L91D, W96V
B22: 2A8 HC Q1E+S31V+S50A+I51D+S55R+S56G+K99V/LC Y48F+D91L+V96W (Fab, V domains shown)
VH: B1 VH with S30R, S31V, D35S, S50A, I51D, G55R, L99V
VL: B1 VL
B23: 2A8 HC S31V+S35D+S55R/LC Y48F+N51V+D91L+V96W (Fab, V domains shown)
VH: B1 VH with E1Q, S30R, S31V, G55R, G56S, L99K
VL: B1 VL with N51V
B24: 2A8 HC S31V+S35D+S54F/LC Y48F+D91L+V96W (Fab, V domains shown)
VH: B1 VH with E1Q, S30R, S31V, S54F, G55S, G56S, L99K
VL: B1 VL
B25: 2A8 HC S35D+I51D+S55R+K99V/LC Y48F+N51V (Fab, V domains shown)
VH: B1 VH with E1Q, S30R, I51D, G55R, G56S, L99V
VL: B1 VL with N51V, L91D, W96V
B26: 2A8 HC Q1E+R30S+S35D+S55R+S56G+K99L/LC Y48F+N51V+D91W (Fab, V domains shown)
VH: B1 VH with G55R
VL: B1 VL with N51V, L91W, W96V
B27: 2A8 HC S31V+G33P+S35D/LC Y48F+N51V+D91L (Fab, V domains shown)
VH: B1 VH with E1Q, S30R, S31V, G33P, G55S, G56S, L99K
VL: B1 VL with N51V, W96V

Substitutions are numbered along the chain they refer to. Numbers in names are those of the source.

The target of one test is T1, mouse tissue factor pathway inhibitor …. As to the kind of experiment: competitive ELISA. For orientation: An ELISA detects its analyte on a solid surface through an enzyme-linked reagent.
B1: the variant/HC_K99L came to 10.6 ratio.

In turn, B2 returned a variant/HC_K99L of 5.9 ratio.

B3 came in with a variant/HC_K99L of 7 ratio.

B4 returned a variant/HC_K99L of 2.2 ratio.

In turn, B5 returned a variant/HC_K99L of 0.2 ratio.

As to B6, the variant/HC_K99L worked out at 8.2 ratio.

B7 gave a variant/HC_K99L of 7.9 ratio.

Consider B8, for which the variant/HC_K99L is 5.6 ratio.

For B9, the variant/HC_K99L was 4.7 ratio.

B10 registered a variant/HC_K99L of 20.3 ratio.

For the molecule B11, the variant/HC_K99L was 6.5 ratio.

The molecule B12 showed a variant/HC_K99L of 19.1 ratio.

With B13, the variant/HC_K99L was determined as 6.5 ratio.

Regarding B14, the variant/HC_K99L is 3.9 ratio.

Molecule B15 had a variant/HC_K99L of 7.2 ratio.

B16: the variant/HC_K99L worked out at 12.1 ratio.

In the case of B17, the variant/HC_K99L came to 5.9 ratio.

B18: the variant/HC_K99L came to 0.1 ratio.

B19 came in with a variant/HC_K99L of 9.3 ratio.

In the case of B20, the variant/HC_K99L is 0.1 ratio.

B21 returned a variant/HC_K99L of 15.7 ratio.

B22 returned a variant/HC_K99L of 7.7 ratio.

The molecule B23 gave a variant/HC_K99L of 8.2 ratio.

Regarding B24, the variant/HC_K99L was 4.2 ratio.

B25 returned a variant/HC_K99L of 2.7 ratio.

On to B26, for which the variant/HC_K99L came to 9.3 ratio.

B27 gave a variant/HC_K99L of 11.7 ratio.

In a further test the target is T2, human tissue factor pathway inhibitor …. As to the kind of experiment: competitive ELISA.
Molecule B1 registered a variant/HC_K99L of 13.6 ratio.

The molecule B2 returned a variant/HC_K99L of 6.6 ratio.

On to B3, for which the variant/HC_K99L was determined as 9.2 ratio.

With B4, the variant/HC_K99L amounted to 8.1 ratio.

For the molecule B5, the variant/HC_K99L came out at 0.8 ratio.

As for B6, the variant/HC_K99L turned out to be 8.6 ratio.

With B7, the variant/HC_K99L was found to be 11.7 ratio.

In turn, B8 gave a variant/HC_K99L of 6.7 ratio.

For the molecule B9, the variant/HC_K99L was 9 ratio.

B10: the variant/HC_K99L stood at 20.9 ratio.

As to B11, the variant/HC_K99L was 13.5 ratio.

On to B12, for which the variant/HC_K99L was 17.9 ratio.

B13 displayed a variant/HC_K99L of 8.4 ratio.

Consider B14, for which the variant/HC_K99L was found to be 4.9 ratio.

B15 came in with a variant/HC_K99L of 7.5 ratio.

In turn, B16 returned a variant/HC_K99L of 16.2 ratio.

For the molecule B17, the variant/HC_K99L turned out to be 22.5 ratio.

In turn, B18 registered a variant/HC_K99L of 0.4 ratio.

As for B19, the variant/HC_K99L is 16.6 ratio.

For B20, the variant/HC_K99L came out at 0.6 ratio.

B21 registered a variant/HC_K99L of 16.3 ratio.

In turn, B22 yielded a variant/HC_K99L of 12.1 ratio.

Molecule B23 came in with a variant/HC_K99L of 8.7 ratio.

The molecule B24 displayed a variant/HC_K99L of 5.4 ratio.

For the molecule B25, the variant/HC_K99L was 8 ratio.

With B26, the variant/HC_K99L worked out at 11.9 ratio.

Regarding B27, the variant/HC_K99L was determined as 12.2 ratio.

Values taken from patent USRE47150 (Bayer, dated 2018).
